From patent US20060121580A1

Experiments:
[1] = target: SARS-CoV strain Frankfurt 1 (infectious virus); test: cell-based or functional assay
[2] = target: SARS-CoV strain Frankfurt 2 (infectious virus); test: cell-based or functional assay
[3] = target: fetal bovine serum (FBS), 10% preparation; test: phage ELISA on coated 10% FBS

Row | Binder | Neutralization titer for Frankfurt 1 strain (dilution factor) [1] | Neutralization titer for Frankfurt 2 strain (dilution factor) [2] | OD492 nm [3] [OD492 nm]
1 | bivalent scFv pyBi03-006C02 (scFv) scFv: SMAEVQLVESGGGLVQPGGSLRLSCAASGFTFSGYPMHWVRQAPGKGLEWVAVISYDGSNKYYADSVKGRFTISRDNSKNTLYLQMNSLRAEDTAVYYCAKDGSPRTPSFDYWGQGTLVTVLEGTGGSGGTGSGTGTSELDIQMTQSPHSLSASVGDRVTITCRASQGISNYLAWYQQKPGKVPKLLIYAASTLQSGVPSRFSGSGSGTDFTLTISSLQPEDVGVYYCQQRFRTPVTFGQGTKLEIKRAAA | < 20 | < 20 | –
2 | bivalent scFv pyBi03-012C02 (scFv) scFv: AMAQVQLVQSGAEVKKPGASVKVSCKASGYTFTSYGISWVRQAPGQGLEWMGWISAYNGNTNYAQKLQGRVTMTTDTSTSTAYMELSSLRSDDTAVYYCARMFRKSSFDSWGQGTLVTVSRGGGGSGGGGSGGGGSSELTQDPAVSVALGQTVRITCQGDSLRSYYASWYQQKPGQAPVLVIYGKNNRPSGIPDRFSGSSSGNTASLTITGAQAEDEADYYCNSRDSSGNHVVFGGGTKLTVLGAAA | < 20 | < 20 | –
3 | bivalent scFv pyBi03-015C02 (scFv) scFv: AMAEVQLVESGGGVVRPGGSLRLSCAASGFTFDDYGMSWVRQAPGKGLEWVSGINWNGGSTGYADSVKGRFTISRDNAKNSLYLQMNSLRAEDTAVYYCARGLSLRPWGQGTLVTVSRGGGGSGGGGSGGGGSSELTQDPAVSVALGQTVRITCQGDSLRSYYASWYQQKPGQAPVLVIYGKNNRPSGIPDRFSGSSSGNTASLTITGAQAEDEADYYCNSRDSSGNHVVFGGGTKLTVLGAAA | < 20 | < 20 | –
4 | single-chain phage antibody SC03-006 (scFv) scFv: SMAEVQLVESGGGLVQPGGSLRLSCAASGFTFSGYPMHWVRQAPGKGLEWVAVISYDGSNKYYADSVKGRFTISRDNSKNTLYLQMNSLRAEDTAVYYCAKDGSPRTPSFDYWGQGTLVTVLEGTGGSGGTGSGTGTSELDIQMTQSPHSLSASVGDRVTITCRASQGISNYLAWYQQKPGKVPKLLIYAASTLQSGVPSRFSGSGSGTDFTLTISSLQPEDVGVYYCQQRFRTPVTFGQGTKLEIKRAAA | – | – | 0.086
5 | single-chain phage antibody SC03-012 (scFv) scFv: AMAQVQLVQSGAEVKKPGASVKVSCKASGYTFTSYGISWVRQAPGQGLEWMGWISAYNGNTNYAQKLQGRVTMTTDTSTSTAYMELSSLRSDDTAVYYCARMFRKSSFDSWGQGTLVTVSRGGGGSGGGGSGGGGSSELTQDPAVSVALGQTVRITCQGDSLRSYYASWYQQKPGQAPVLVIYGKNNRPSGIPDRFSGSSSGNTASLTITGAQAEDEADYYCNSRDSSGNHVVFGGGTKLTVLGAAA | – | – | 0.1
6 | single-chain phage antibody SC03-015 (scFv) scFv: AMAEVQLVESGGGVVRPGGSLRLSCAASGFTFDDYGMSWVRQAPGKGLEWVSGINWNGGSTGYADSVKGRFTISRDNAKNSLYLQMNSLRAEDTAVYYCARGLSLRPWGQGTLVTVSRGGGGSGGGGSGGGGSSELTQDPAVSVALGQTVRITCQGDSLRSYYASWYQQKPGQAPVLVIYGKNNRPSGIPDRFSGSSSGNTASLTITGAQAEDEADYYCNSRDSSGNHVVFGGGTKLTVLGAAA | – | – | 0.077
